US8840891 (RSR, dated 2014)
Read-outs that look alike come from different tables or passages of the source.

Experiments:
[1] = target: wild type human TSHR (human) (UniProt P16473); experiment: cell-based or functional assay
[2] = target: TSHR with Lys58 mutated to Alanine (human) (UniProt P16473); experiment: cell-based or functional assay
[3] = target: wild type human TSHR (human) (UniProt P16473); experiment: cell-based or functional assay; remark: listed apart in the source
[4] = target: TSHR with Ser281 mutated to Alanine (human) (UniProt P16473); experiment: cell-based or functional assay
[5] = target: human TSHR with activating mutation S281I, on CHO cells (human) (UniProt P16473); experiment: cell-based or functional assay
[6] = target: TSHR with Tyr206 mutated to Alanine expressed on CHO cells (human) (UniProt P16473); experiment: cell-based or functional assay
[7] = target: wild type human TSHR (thyrotropin receptor) expressed on CHO cells (human) (UniProt P16473); experiment: cell-based or functional assay
[8] = target: wild type human TSHR (thyrotropin receptor) expressed on CHO cells (human) (UniProt P16473); experiment: cell-based or functional assay; remark: listed apart in the source
[9] = target: TSHR with Asp203 mutated to Alanine expressed on CHO cells (human) (UniProt P16473); experiment: cell-based or functional assay
[10] = target: TSHR coated onto tubes (TSHR coated tubes) (human) (UniProt P16473); experiment: TSHR coated tubes, in the presence of HBD pool (Table 5)

Molecule: 5C9 IgG (antibody)
- cyclic AMP; 100 µg/mL 5C9 IgG only (fmol/cell well) [1]: 253
- cyclic AMP; 5C9 0.01 µg/mL + TSH (fmol/cell well) [1]: 7340
- cyclic AMP; 5C9 0.1 µg/mL + TSH (fmol/cell well) [1]: 4640
- cyclic AMP; 5C9 1.0 µg/mL + TSH (fmol/cell well) [1]: 918
- cyclic AMP; 5C9 10 µg/mL + TSH (fmol/cell well) [1]: 351
- cyclic AMP; 5C9 100 µg/mL + TSH (fmol/cell well) [1]: 528
- cyclic AMP; 5C9 100 µg/mL only (fmol/cell well) [1]: 47
- cyclic AMP; T21 + 0.001 µg/mL 5C9 IgG (fmol/cell well) [1]: 11300
- cyclic AMP; T21 + 0.01 µg/mL 5C9 IgG (fmol/cell well) [1]: 10400
- cyclic AMP; T21 + 0.1 µg/mL 5C9 IgG (fmol/cell well) [1]: 7480
- cyclic AMP; T21 + 1 µg/mL 5C9 IgG (fmol/cell well) [1]: 418
- cyclic AMP; T21 + 10 µg/mL 5C9 IgG (fmol/cell well) [1]: 303
- cyclic AMP; T21 + 100 µg/mL 5C9 IgG (fmol/cell well) [1]: 210
- Mutated/wild type (%); 5C9 0.01 µg/mL + TSH [2]: 108%
- Mutated/wild type (%); 5C9 0.1 µg/mL + TSH [2]: 104%
- Mutated/wild type (%); 5C9 1.0 µg/mL + TSH [2]: 195%
- Mutated/wild type (%); 5C9 10 µg/mL + TSH [2]: 272%
- Mutated/wild type (%); 5C9 100 µg/mL + TSH [2]: 190%
- cyclic AMP; 5C9 0.01 µg/mL + TSH (fmol/cell well) [2]: 7910
- cyclic AMP; 5C9 0.1 µg/mL + TSH (fmol/cell well) [2]: 4820
- cyclic AMP; 5C9 1.0 µg/mL + TSH (fmol/cell well) [2]: 1790
- cyclic AMP; 5C9 10 µg/mL + TSH (fmol/cell well) [2]: 955
- cyclic AMP; 5C9 100 µg/mL + TSH (fmol/cell well) [2]: 1000
- cyclic AMP; 5C9 100 µg/mL only (fmol/cell well) [2]: < 25
- cyclic AMP; 5C9 0.01 µg/mL + TSH (fmol/cell well) [3]: 13800
- cyclic AMP; 5C9 0.1 µg/mL + TSH (fmol/cell well) [3]: 9070
- cyclic AMP; 5C9 1.0 µg/mL + TSH (fmol/cell well) [3]: 3730
- cyclic AMP; 5C9 10 µg/mL + TSH (fmol/cell well) [3]: 802
- cyclic AMP; 5C9 100 µg only (fmol/cell well) [3]: 201
- cyclic AMP; 5C9 100 µg/mL + TSH (fmol/cell well) [3]: 1080
- Mutated/wild type (%); 5C9 0.01 µg/mL + TSH [4]: 210%
- Mutated/wild type (%); 5C9 0.1 µg/mL + TSH [4]: 172%
- Mutated/wild type (%); 5C9 1.0 µg/mL + TSH [4]: 95%
- Mutated/wild type (%); 5C9 10 µg/mL + TSH [4]: 193%
- Mutated/wild type (%); 5C9 100 µg only [4]: 391%
- Mutated/wild type (%); 5C9 100 µg/mL + TSH [4]: 149%
- cyclic AMP; 5C9 0.01 µg/mL + TSH (fmol/cell well) [4]: 29000
- cyclic AMP; 5C9 0.1 µg/mL + TSH (fmol/cell well) [4]: 15600
- cyclic AMP; 5C9 1.0 µg/mL + TSH (fmol/cell well) [4]: 3550
- cyclic AMP; 5C9 10 µg/mL + TSH (fmol/cell well) [4]: 1550
- cyclic AMP; 5C9 100 µg only (fmol/cell well) [4]: 785
- cyclic AMP; 5C9 100 µg/mL + TSH (fmol/cell well) [4]: 1600

B1: 5C9 IgG (human monoclonal autoantibody to the TSHR) (antibody, from another filing, V domains shown)
VH: EVQLVESGGGLIQPGGSLRLSCAASGFTVSSNYMSWVRQAPGKGLEWVSVTYSGGSTSYADSVKGRFTISRDNSKNTLYLQMNSLRAEDTAVYYCARGGRYCSSISCYARSGCDYWGQGTLVTVSS
VL: AIQMTQSPSSLSASVGDRVTITCRASQSISNYLNWYQQKPGKAPKLLIYAASSLQSGVPSRFSGSGSGTDFTLTISSLQPEDFATYYCQQSYSSPSTTFGQGTKLEIK
- % inhibition of basal cyclic AMP activity; 5C9 IgG 1 µg/mL [5]: 71%
- Cyclic AMP produced; 5C9 0.01 µg/mL + TSH (fmol/cell well) [6]: 18400
- Cyclic AMP produced; 5C9 0.1 µg/mL + TSH (fmol/cell well) [6]: 10800
- Cyclic AMP produced; 5C9 1.0 µg/mL + TSH (fmol/cell well) [6]: 3460
- Cyclic AMP produced; 5C9 10 µg/mL + TSH (fmol/cell well) [6]: 1560
- Cyclic AMP produced; 5C9 100 µg/mL + TSH (fmol/cell well) [6]: 506
- Cyclic AMP produced; 5C9 100 µg/mL only (fmol/cell well) [6]: 482
- Mutated/wild type (%); 5C9 0.01 µg/mL + TSH [6]: 114%
- Mutated/wild type (%); 5C9 0.1 µg/mL + TSH [6]: 174%
- Mutated/wild type (%); 5C9 1.0 µg/mL + TSH [6]: 265%
- Mutated/wild type (%); 5C9 10 µg/mL + TSH [6]: 395%
- Mutated/wild type (%); 5C9 100 µg/mL + TSH [6]: 173%
- Mutated/wild type (%); 5C9 100 µg/mL only [6]: 109%
- Cyclic AMP produced; 5C9 0.01 µg/mL + TSH (fmol/cell well) [7]: 16100
- Cyclic AMP produced; 5C9 0.1 µg/mL + TSH (fmol/cell well) [7]: 6220
- Cyclic AMP produced; 5C9 1.0 µg/mL + TSH (fmol/cell well) [7]: 1310
- Cyclic AMP produced; 5C9 10 µg/mL + TSH (fmol/cell well) [7]: 396
- Cyclic AMP produced; 5C9 100 µg/mL + TSH (fmol/cell well) [7]: 292
- Cyclic AMP produced; 5C9 100 µg/mL only (fmol/cell well) [7]: 444
- Cyclic AMP produced; 5C9 0.01 µg/mL + TSH (fmol/cell well) [8]: 15500
- Cyclic AMP produced; 5C9 0.1 µg/mL + TSH (fmol/cell well) [8]: 4440
- Cyclic AMP produced; 5C9 1.0 µg/mL + TSH (fmol/cell well) [8]: 1350
- Cyclic AMP produced; 5C9 10 µg/mL + TSH (fmol/cell well) [8]: 807
- Cyclic AMP produced; 5C9 100 µg/mL + TSH (fmol/cell well) [8]: 367
- Cyclic AMP produced; 5C9 100 µg/mL only (fmol/cell well) [8]: 330
- Cyclic AMP produced; 5C9 0.01 µg/mL + TSH (fmol/cell well) [9]: 14700
- Cyclic AMP produced; 5C9 0.1 µg/mL + TSH (fmol/cell well) [9]: 13100
- Cyclic AMP produced; 5C9 1.0 µg/mL + TSH (fmol/cell well) [9]: 14700
- Cyclic AMP produced; 5C9 10 µg/mL + TSH (fmol/cell well) [9]: 12600
- Cyclic AMP produced; 5C9 100 µg/mL + TSH (fmol/cell well) [9]: 12700
- Cyclic AMP produced; 5C9 100 µg/mL only (fmol/cell well) [9]: 1370
- Mutated/wild type (%); 5C9 0.01 µg/mL + TSH [9]: 95%
- Mutated/wild type (%); 5C9 0.1 µg/mL + TSH [9]: 296%
- Mutated/wild type (%); 5C9 1.0 µg/mL + TSH [9]: 1090%
- Mutated/wild type (%); 5C9 10 µg/mL + TSH [9]: 1570%
- Mutated/wild type (%); 5C9 100 µg/mL + TSH [9]: 3450%
- Mutated/wild type (%); 5C9 100 µg/mL only [9]: 415%
- % of labelled protein bound [10]: 13%
